US12331106B2, “Anti-angiopoietin-2 antibodies that induce Tie2 activation” (Institute for Basic Science, priority 2018, dated 2025)

T1: hAng2 (Homo sapiens, UniProt O15123)
T1 sequence (O15123 19-496): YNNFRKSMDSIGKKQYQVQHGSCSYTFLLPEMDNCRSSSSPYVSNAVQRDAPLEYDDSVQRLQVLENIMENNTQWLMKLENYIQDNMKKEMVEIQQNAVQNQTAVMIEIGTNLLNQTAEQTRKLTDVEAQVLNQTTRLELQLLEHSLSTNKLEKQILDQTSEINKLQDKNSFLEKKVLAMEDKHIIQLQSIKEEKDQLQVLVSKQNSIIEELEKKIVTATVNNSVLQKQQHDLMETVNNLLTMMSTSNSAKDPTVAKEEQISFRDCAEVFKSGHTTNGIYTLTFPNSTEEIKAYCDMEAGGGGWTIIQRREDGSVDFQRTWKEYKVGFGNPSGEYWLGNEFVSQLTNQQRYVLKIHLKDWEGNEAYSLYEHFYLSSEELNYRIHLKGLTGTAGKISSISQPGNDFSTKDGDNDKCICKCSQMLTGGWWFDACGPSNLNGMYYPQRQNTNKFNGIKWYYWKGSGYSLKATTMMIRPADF


How the values were obtained:
[1] = system: downstream signaling of the Tie2 receptor (Akt phosphorylation) in HUVECs; test: Akt phosphorylation in HUVECs by mouse anti-Ang2 antibodies plus hAng2 (immunoblot); format: cell-based, human; details: serum-starved HUVECs; antibody combined with hAng2 1 μg/ml; 30 min
Protocol: To investigate whether the mouse anti-Ang2 antibodies induce the downstream signaling of the Tie2 receptor in endothelial cells, HUVECs (LONZA™) were treated with a combination of hAng2 protein and anti-Ang2 antibody, and then the level of Akt phosphorylation, the main downstream signaling protein of Tie2 receptor, was analyzed by immunoblotting. As a negative control group, the full-length hAng2 (R&D® Systems) alone was treated into the cells.
Specifically, HUVECs (1×10^5 cells/ml) were cultured in EGM-2 medium (LONZA™) at 37° C. in a 60 mm culture dish. Cells (90% confluency) were incubated with serum-free EBM-2 medium for 4 hrs for serum starvation. The serum-starved HUVECs were treated with a mixture of anti-Ang2 antibody and hAng2 protein (1 μg/ml, R&D® Systems) and further incubated for 30 min. The cells were washed with cold PBS, treated with lysis buffer, and lysed at 4° C. for 20 min. Then, the cell lysates were prepared by centrifugation at 13000 rpm for 15 min. 5× SDS sample buffer was added to the cell lysate and the cell lysate was boiled at 95° C. for 5 min. Then, the cell lysate was subjected to SDS PAGE and proteins were transferred to a nitrocellulose membrane (GE).
To investigate Akt phosphorylation, the blot was blocked with 5% skim milk-containing TBS-T for 1 hr at room temperature (RT), and incubated with anti-phospho-Akt antibody (S473) at 4° C. for about 8 hrs. The amount of phospho-Akt was visualized by an enhanced chemiluminescence (ECL). Then, the membrane was incubated in a stripping buffer (Thermo) for 15 min, and then reprobed with an anti-Akt antibody to determine the amount of total Akt.

hAng2 = target: T1, hAng2; test: OCTET affinity of mouse monoclonal anti-Ang2 antibodies against hAng2; details: hAng2 fixed on AR2G biosensor, 1:1 binding model
Protocol: The affinity of mouse monoclonal antibody against hAng2 was measured using OCTET® system (ForteBio, real-time, label-free bio-layer interferometry system for determination of affinity, kinetics, and concentration). Specifically, buffer and samples were measured in total 200 μl/well using Black 96-well plates (96 well F-type black plates, Greiner). The biosensor used for affinity measurements was hydrated for 10 min before measurement with AR2G tip (ForteBio OCTET®). After the hydration, hAng2 was diluted in 10 mM sodium acetate, pH 6.0 buffer at a concentration of 10 μg/ml, fixed on AR2G biosensor, and blocked with 1M ethanolamine. The mouse monoclonal anti-Ang2 antibodies were diluted to 50, 25, 12.5, 6.25, 3.125, and 0 nM with 1× kinetic buffer, and subjected to association for 300 seconds and dissociation for 900 seconds. For affinity measurement (KD), the association rate (K-on) and dissociation rate (K-off) were analyzed by binding curve (global) and fitted to 1:1 binding model using OCTET® data analysis v9.0.0.10 program.

Akt phosphorylation at S473 [1]	Koff (hAng2)	Kon (hAng2)	Molecule
strongly induced	1.71e-05 s⁻¹	124000 M⁻¹ s⁻¹	2F10: mouse monoclonal anti-Ang2 antibody; VH SEQ ID NO: 29, VL SEQ ID NO: 31 (antibody, V domains shown, Heavy Chain Variable Region; Light Chain Variable Region) VH: QVQLVESGGGLVKPGGSLKLSCAASGFTFSDYYMYWIRQTPEKRLEWVATINDGGSYTYYPDSVKGRFTISRDNAKNNLYLQMSSLKSEDTAMYYCARDWGLRPWFVYWGQGTLVTVSA VL: DIVMTQSHKFMSTSVGDRVSITCKASQDVSTAVAWYQQKPGQSPKLLIYWASTRHTGVPDRFTGSGSGTDYTLTISSVQAEDLALYYCQQHYTTPPTFGSGTKLEIK
strongly induced	0.000134 s⁻¹	28300 M⁻¹ s⁻¹	4E2: mouse monoclonal anti-Ang2 antibody; VH SEQ ID NO: 39, VL SEQ ID NO: 41 (antibody, V domains shown, Heavy Chain Variable Region; Light Chain Variable Region) VH: EVQLQQSGPELEKPGASVKISCKASGYSFTGYNMNWVKQSNGKSLEWIGNIDPYYGGTSYNQKFKGKATLTVDKSSSTAYMQLKSLTSEDSAVYYCVRYGNYVDYWGQGTTLTVSS VL: DIVMTQSHKFMSTSVGDRVSITCKASQDVSTAVAWYQQKPGQSPKLLIYWASTRHTGVPDRFTGSGSGTDYTLTISSVQAEDLALYYCQQHYNTPPTFGSGTKLEIK
